Source: patent US20110086806A1 (published 2011)
Residue numbers refer to the chain shown, from its start. In names and notes the source's numbering stands.

T1: recombinant human IL-23R/Fc chimera (R&D Systems) (human, UniProt Q5VWK5 24-355)
T1 construct: Bought; also called rhIL23RFc
T1 sequence (looked up): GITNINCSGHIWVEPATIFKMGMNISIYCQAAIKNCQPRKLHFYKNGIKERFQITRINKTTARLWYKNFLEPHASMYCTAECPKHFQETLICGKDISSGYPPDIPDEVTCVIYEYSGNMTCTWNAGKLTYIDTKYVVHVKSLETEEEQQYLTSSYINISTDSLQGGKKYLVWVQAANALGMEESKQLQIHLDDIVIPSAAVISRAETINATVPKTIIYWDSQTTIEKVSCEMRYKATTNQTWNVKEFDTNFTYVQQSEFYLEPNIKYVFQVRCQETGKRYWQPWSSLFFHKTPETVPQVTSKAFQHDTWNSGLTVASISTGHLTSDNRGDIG

B1: 105-20-1B3 ATRIMER complex (designed binder)
chain: EPPTQKPKKIVNAKKDVVNTKMFEELKSRLDTLAQEVALLKEQQALQTVCLKGTKVHMKCFLAFTQTKTFHEASEDCISRGGTLSTPQTGSENDALYEYLRQSVGNEAEIWLGLNGSALTNTWVDMTGARIAYKNWETEITAQPDGGFGYFGENCAVLSGAANGKWFDKRCRDQLPYICQFGIV
B2: 101-54-4B10 ATRIMER complex (designed binder)
chain: B1 chain with T138R, E139P, I140P, T141L, A142Y, D145G
B3: 101-54-4B3 ATRIMER complex (designed binder)
chain: B1 chain with T138L, E139P, I140P, T141P, A142G, Q143H, D145Q, Y150V
B4: 105-20-2F12 ATRIMER complex (designed binder)
chain: B1 chain with A118K, N121D
modifications: ATRIMER complex: homotrimer of three copies of this chain, joined by the tetranectin coiled coil
notes: not shown: C-terminal tag: Myc/His (pANA4) or HA-StrepII (pANA10)
B5: 105-20-1H1 ATRIMER complex (designed binder)
chain: B1 chain with A118P, F148W
B6: 105-08-1D3 ATRIMER complex (designed binder)
chain: B1 chain with A118K, L119V, N121E
B7: 101-51-1A9 ATRIMER complex (designed binder)
chain: B1 chain with T138P, E139A, I140R, T141Q, A142P, D145G
B8: 101-51-1A5 ATRIMER complex (designed binder)
chain: B1 chain with T138N, E139G, I140H, T141E, A142P, D145R
modifications: Forms a homotrimer through the tetranectin coiled coil; one protomer is given.
notes: not shown: C-terminal tag: His/Myc (pANA4) or HA-StrepII (pANA10)
B9: 101-113-6C102 ATRIMER complex (designed binder)
chain: EPPTQKPKKIVNAKKDVVNTKMFEELKSRLDTLAQEVALLKEQQALQTVCLKGTKVHMKCFLAFTQTKTFHEASEDCISRGGTLSTPQTGSENDALYEYLRQSVGNEAEIWLGLNGSNVTQTWVDMTGARIAYKNWEPPPPHHPQGGFGVFGENCAVLSGAANGKWFDKRCRDQLPYICQFGIV
notes: not shown: C-terminal tag
B10: 105-08-2C10 ATRIMER complex (designed binder)
chain: B1 chain with A118L, N121D, Y150V
B11: 101-51-1A3 ATRIMER complex (designed binder)
chain: B1 chain with T138H, E139Q, I140P, T141V, A142Y, D145G, F148W, Y150V
modifications: Forms a homotrimer through the tetranectin coiled coil; one protomer is given.
notes: as for B8
B12: 105-08-1A4 ATRIMER complex (designed binder)
chain: B1 chain with L119V
B13: 101-51-1A8 ATRIMER complex (designed binder)
chain: B1 chain with T138R, E139T, I140P, T141P, A142W, D145E
modifications: Forms a homotrimer through the tetranectin coiled coil; one protomer is given.
notes: as for B8
B14: 105-08-2G7 ATRIMER complex (designed binder)
chain: B1 chain with A118P, L119K, N121G
B15: 101-51-1A6 ATRIMER complex (designed binder)
chain: B1 chain with T138N, E139N, I140L, T141S, D145R
modifications: Forms a homotrimer through the tetranectin coiled coil; one protomer is given.
notes: as for B8
B16: 101-80-5E8 ATRIMER complex (designed binder)
chain: B9 chain with N118A, V119L, Q121N, P140E, H142L, Q145M
B17: 101-54-4A12 ATRIMER complex (designed binder)
chain: B9 chain with N118R, V119R, T120S, Q121G, T122V, P140G, H142A
notes: also called 101-54-4Al2
B18: 105-20-1H7 ATRIMER complex (designed binder)
chain: B1 chain with L119G
B19: 105-20-2G12 ATRIMER complex (designed binder)
chain: B1 chain with A118P, L119R
B20: 105-08-2G10 ATRIMER complex (designed binder)
chain: B1 chain with A118P, N121D
B21: 105-08-2F6 ATRIMER complex (designed binder)
chain: B1 chain with L119Y
B22: 105-20-2A3 ATRIMER complex (designed binder)
chain: B1 chain with A118P, L119I
modifications: Homotrimer of three identical chains (ATRIMER complex); one chain is given.
notes: as for B8
B23: 105-08-1A3 ATRIMER complex (designed binder)
chain: B1 chain with A118P, L119R, N121D, F148W, Y150V
modifications: Homotrimer of three identical chains (ATRIMER complex); one chain is given.
notes: as for B8
B24: 101-51-1A10 ATRIMER complex (designed binder)
chain: B1 chain with T138H, E139P, I140L, T141P, A142P, D145S
modifications: Forms a homotrimer through the tetranectin coiled coil; one protomer is given.
notes: as for B8
B25: 101-80-5H3 ATRIMER complex (designed binder)
chain: EPPTQKPKKIVNAKKDVVNTKMFEELKSRLDTLAQEVALLKEQQALQTVCLKGTKVHMKCFLAFTQTKTFHEASEDCISRGGTLSTPQTGSENDALYEYLRQSVGNEAEIWLGLNGSALTNTWVDMTGARIAYKNWEPPAPYHPMAAGVFGENCAVLSGAANGKWFDKRCRDQLPYICQFGIV
B26: 056-41.B5C ATRIMER complex (designed binder)
chain: B1 chain
modifications: non-covalent homotrimer of the one chain given
notes: not shown: Also the single Ser the vector leaves after the ompA signal

Target: T1, recombinant human IL-23R/Fc chimera …
Assay: competition ELISA vs IL-23
Description: (§1) Assays were performed generally as follows. Individual wells in Immulon HB2 plates were incubated overnight at 4° C. with 100 μL PBS containing 100 ng of an anti-human IgG Fc (R&D MAB 110 clone 97924). Plates were washed five times with PBS/0.05% Tween 20, and wells were incubated for 1.5 h at RT with 100 μL each of PBS containing 50 ng of recombinant human IL-23R/Fc. […] Competitor was included at a final concentration of 1 μg/mL. After incubation, plates were washed as described and wells were incubated for 40 min at RT with 100 μL each of PBS containing a 1:5000 dilution of streptavidin-HRP conjugate (Pierce catalog no. 21130). After washing, wells were incubated with 100 μL each of TMB (BioFX Lab catalog no. TMBH-1000-0) for up to 30 min at RT. Reactions were stopped with an equal volume of 0.2 M sulfuric acid.

Row | Binder | Ratio IC50 to 056-53.H4E IC50
1 | B1 | 1.2
2 | B2 | 1.4
3 | B3 | 1
4 | B4 | 2.8
5 | B5 | 1.8
6 | B6 | 0.4
7 | B7 | 2.2
8 | B8 | 1
9 | B9 | 2
10 | B10 | 0.9
11 | B11 | 1.6
12 | B12 | 1.6
13 | B13 | 3.7
14 | B14 | 2.5
15 | B15 | 2.6
16 | B16 | 0.6
17 | B17 | 1.1
18 | B18 | 2.1
19 | B19 | 1
20 | B20 | 1.8
21 | B21 | 2.4
22 | B22 | 1.2
23 | B23 | 1.1
24 | B24 | 8.7
25 | B25 | 11.3

Target: T1, recombinant human IL-23R/Fc chimera …
Assay: competition ELISA vs IL-23
Remark: another data set of the same source
Description: as §1
A number of ATRIMER™ polypeptide complexes were tested in competition ELISA more extensively to determine IC50 values.

Row | Binder | IC50 [nM]
26 | B26 | 1.65

Target: T1, recombinant human IL-23R/Fc chimera …
Assay: SPR
Description: A Biacore 3000 biosensor (GE Healthcare) was used to evaluate the interaction of human IL-23R and receptor binders. Immobilization of an anti-human IgG Fc antibody (GE Healthcare) to the CM5 chip (GE Healthcare) was performed using standard amine coupling chemistry, and this modified surface was used to capture a recombinant human IL-23R/Fc fusion protein (R&D Systems). A low-density receptor surface, less than 200 RU, was used for all of the analyses. ATRIMER™ polypeptide complex dilutions (1-500 nM) were injected over the IL-23R surface at 30 μl/min and kinetic constants were derived from the sensorgram data using the Biaevaluation software (version 3.1, GE Healthcare). Data collection was 3 minutes for the association and 5 minutes for dissociation. The anti-human IgG surface was regenerated with a 30s pulse of 3M magnesium chloride. All sensorgrams were double-referenced against an activated and blocked flow-cell as well as buffer injections.

Row | Binder | Ka [M⁻¹] | Kd [nM] | koff [s⁻¹] | kon [M⁻¹ s⁻¹]
27 | B26 | 9.78e+08 | 1.02 | 0.000314 | 307000
28 | B1 | 1.31e+09 | 0.764 | 0.00031 | 405000
29 | B2 | 1.11e+09 | 0.897 | 0.000429 | 479000
30 | B3 | 3.12e+09 | 0.321 | 0.000364 | 1.13e+06
31 | B4 | 5.41e+08 | 1.85 | 0.000471 | 254000
32 | B5 | 1.17e+09 | 0.857 | 0.00032 | 374000
33 | B6 | 7.58e+08 | 1.32 | 0.000301 | 228000
34 | B7 | 1.05e+09 | 0.955 | 0.000329 | 345000
35 | B8 | 1.71e+09 | 0.584 | 0.000289 | 495000
36 | B9 | 9.62e+08 | 1.04 | 0.000283 | 271000
37 | B10 | 1.63e+09 | 0.612 | 0.000371 | 606000
38 | B11 | 1.77e+09 | 0.565 | 0.000262 | 463000
39 | B12 | 8e+08 | 1.25 | 0.000312 | 250000
40 | B13 | 6.62e+08 | 1.51 | 0.000396 | 262000
41 | B14 | 6.99e+08 | 1.43 | 0.000358 | 251000
42 | B15 | 1.34e+09 | 0.746 | 0.000415 | 557000
43 | B16 | 2.89e+09 | 0.346 | 0.000391 | 1.13e+06
44 | B17 | 2.16e+09 | 0.463 | 0.000573 | 1.24e+06
45 | B18 | 1.34e+09 | 0.744 | 0.000372 | 500000
46 | B19 | 1.52e+09 | 0.658 | 0.000262 | 398000
47 | B20 | 7.58e+08 | 1.32 | 0.000397 | 302000
48 | B21 | 1.53e+09 | 0.653 | 0.000359 | 550000
49 | B22 | 1.32e+09 | 0.759 | 0.000312 | 412000
50 | B23 | 2.11e+09 | 0.473 | 0.000348 | 735000
51 | B24 | 4.85e+08 | 2.06 | 0.000345 | 167000
52 | B25 | 1.55e+08 | 6.46 | 0.000327 | 50500
